T1: human CXC Chemokine Receptor 3 (CXCR3) (human, UniProt P49682 1-368)
T1 construct: also called IP-10/Mig receptor; IP-10/MigR
T1 sequence: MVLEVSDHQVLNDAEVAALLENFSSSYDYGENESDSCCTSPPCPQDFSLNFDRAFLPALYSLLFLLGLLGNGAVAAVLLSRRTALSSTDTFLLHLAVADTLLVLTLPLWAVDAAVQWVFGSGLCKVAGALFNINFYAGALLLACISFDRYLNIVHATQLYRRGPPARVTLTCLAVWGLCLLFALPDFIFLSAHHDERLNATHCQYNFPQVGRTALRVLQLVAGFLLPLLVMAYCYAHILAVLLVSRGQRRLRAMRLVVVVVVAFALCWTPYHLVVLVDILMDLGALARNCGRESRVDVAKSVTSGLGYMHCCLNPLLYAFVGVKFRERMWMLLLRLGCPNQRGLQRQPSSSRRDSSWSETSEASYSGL


Assays:
[1] = biological target: T1, human CXC Chemokine Receptor 3 (CXCR3); experiment: cell-based or functional assay
[2] = biological target: T1, human CXC Chemokine Receptor 3 (CXCR3); experiment: inhibition of 125I-IP-10 binding to activated T cells
[3] = biological target: T1, human CXC Chemokine Receptor 3 (CXCR3); experiment: inhibition of 0.05 nM 125I-IP-10 binding to activated T cells (CD3 blasts)
[4] = biological target: T1, human CXC Chemokine Receptor 3 (CXCR3); experiment: summing-up of the radioligand binding studies; Mig itself was tested only as cold competitor of 125I-IP-10

Sequence of RANTES (regulated on activation, normal T cell expressed and secreted) (P13501 24-91): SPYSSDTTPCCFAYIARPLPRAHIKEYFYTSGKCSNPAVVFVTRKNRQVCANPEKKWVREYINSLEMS
Sequence of IL-8 (interleukin 8) (P10145 28-99 limits assumed): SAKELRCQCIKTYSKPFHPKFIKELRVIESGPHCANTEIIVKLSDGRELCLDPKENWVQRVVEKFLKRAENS
Sequence of GCP-2 (granulocyte chemotactic protein-2) (P80162 38-114 limits assumed): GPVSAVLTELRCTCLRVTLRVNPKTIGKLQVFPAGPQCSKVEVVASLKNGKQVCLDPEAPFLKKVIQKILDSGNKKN
Sequence of MIP-1β (P13236 24-92 limits assumed): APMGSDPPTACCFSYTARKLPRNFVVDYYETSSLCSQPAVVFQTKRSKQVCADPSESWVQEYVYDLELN
Sequence of MCP-2 (P80075 24-99 limits assumed): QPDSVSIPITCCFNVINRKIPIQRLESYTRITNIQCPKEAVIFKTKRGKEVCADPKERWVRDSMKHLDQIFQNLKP
Sequence of ENA78 (epithelial-derived neutrophil-activating peptide 78) (P42830 37-114 limits assumed): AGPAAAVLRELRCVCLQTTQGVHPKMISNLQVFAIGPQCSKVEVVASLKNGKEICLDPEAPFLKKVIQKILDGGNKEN
Sequence of MIP-1α (macrophage inflammatory protein-1α) (P10147 24-92 limits assumed): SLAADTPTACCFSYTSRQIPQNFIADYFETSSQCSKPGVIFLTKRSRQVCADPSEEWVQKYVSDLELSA
Sequence of GROα (P09341 35-107 limits assumed): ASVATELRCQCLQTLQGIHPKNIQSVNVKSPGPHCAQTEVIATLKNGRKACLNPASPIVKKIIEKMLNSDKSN

Molecule | [Ca2+]i changes in IP-10/MigR transfectants (no response up to the concentration given) [1] [nM] | further results
ENA78 (epithelial-derived neutrophil-activating peptide 78) (from UniProt P42830 37-114) (ligand) | > 100 | –
GCP-2 (granulocyte chemotactic protein-2) (from UniProt P80162 38-114) (ligand) | > 100 | –
GROα (from UniProt P09341 35-107) (ligand) | > 100 | –
IL-8 (interleukin 8) (from UniProt P10145 28-99) (ligand) | > 100 | –
MCP-1 (monocyte chemotactic protein-1) (from UniProt P13500 24-99) (ligand) | > 100 | –
MCP-2 (from UniProt P80075 24-99) (ligand) | > 100 | –
MCP-3 (from UniProt P80098 24-99) (ligand) | > 100 | –
MCP-4 (from UniProt Q99616 24-98) (ligand) | > 100 | –
MIP-1α (macrophage inflammatory protein-1α) (from UniProt P10147 24-92) (ligand) | > 100 | –
MIP-1β (from UniProt P13236 24-92) (ligand) | > 100 | –
RANTES (regulated on activation, normal T cell expressed and secreted) (from UniProt P13501 24-91) (ligand) | > 100 | –
eotaxin (from UniProt P51671 24-97) (ligand) | > 100 | –
lymphotactin (from UniProt P47992 22-114) (ligand) | > 100 | –
murine anti-CXCR3 monoclonal antibody 1C6 | – | IC50, inhibition of IP-10 (12.5 nM) induced chemotaxis of activated T cells [1]: 0.8 µg/mL; IC50, inhibition of IP-10 mediated chemotaxis of activated T cells [1]: 0.856 µg/mL; Mig (2 nM) induced [Ca2+]i in activated T cells (no effect up to the concentration given) [1]: > 50 µg/mL; antibody concentration giving 100% inhibition of IP-10 induced chemotaxis of activated T cells [1]: 2 to 5 µg/mL; antibody concentration giving complete inhibition of 125I-IP-10 binding [2]: 1 to 10 µg/mL; IC50 [3]: 0.16 µg/mL
I309 (ligand, human, UniProt P22362 24-96, looked up) KSMQVPFSRCCFSFAEQEIPLRAILCYRNTSSICSNEGLIFKLKRGKEACALDTVGWVQRHRKMLRHCPSKRK | > 100 | –
NAP-2 (neutrophil-activating protein-2) (ligand, human, UniProt P02775 59-128, looked up) AELRCMCIKTTSGIHPKNIQSLEVIGKGTHCNQVEVIATLKDGRKICLDPDAPRIKKIVQKKLAGDESAD | > 100 | –
PF4 (platelet factor 4) (ligand, human, UniProt P02776 32-101, looked up) EAEEDGDLQCLCVKTTSQVRPRHITSLEVIKAGPHCPTAQLIATLKNGRKICLDLQAPLYKKIIKKLLES | > 100 | –
Mig (monokine induced by gamma interferon) (ligand, human, UniProt Q07325 23-125, looked up, also called cold Mig) TPVVRKGRCSCISTNQGTIHLQSLKDLKQFAPSPSCEKIEIIATLKNGVQTCLNPDSADVKELIKKWEKQVSQKKKQKNGKKHQKKKVLKVRKSQRSRQKKTT | – | Kd [4]: 0.15 to 0.6 nM

— patent publication US20100061983A1 (published 2010)
